The results in this text go back to patent publication WO2014037419A1 (dated 2014).

Assay [1] has as its target T1, Mouse CD74 on cells (C57Black/6 PECs, MC-38, 3LL) (mouse) (UniProt P04441).
T1 sequence: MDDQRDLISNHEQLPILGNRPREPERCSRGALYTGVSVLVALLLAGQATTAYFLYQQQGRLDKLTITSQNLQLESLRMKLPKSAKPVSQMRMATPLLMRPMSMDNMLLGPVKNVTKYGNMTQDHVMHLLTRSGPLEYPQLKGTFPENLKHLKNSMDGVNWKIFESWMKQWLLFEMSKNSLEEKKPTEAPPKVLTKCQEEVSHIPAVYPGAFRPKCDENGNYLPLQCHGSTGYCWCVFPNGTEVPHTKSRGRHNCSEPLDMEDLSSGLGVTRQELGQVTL
Nature of the assay: FACS, PECs of MIF-/- mice, APC-labeled MIF 200ng alone (cells without MIF: 25.6). In general terms: In flow cytometry, cells or beads pass a laser one at a time.

Assay [2] deals with T1, Mouse CD74 on cells (C57Black/6 PECs, MC-38, 3LL) (mouse). Nature of the assay: FACS, PECs of WT mice, APC-labeled MIF 200ng pre-incubated with the small molecule ISO-1 (20 nM).
Assay [3] shares this target. The assay can be described thus: FACS, PECs of WT mice, APC-labeled MIF 200ng alone (cells without MIF: 22.4).
Assay [4] has the same target. Nature of the assay: FACS, PECs of MIF-/- mice, APC-labeled MIF 200ng pre-incubated with the small molecule ISO-1 (20 nM).
For assay [5] the target is unchanged. The assay can be described thus: FACS competition, PECs of MIF-/- mice, APC-labeled MIF 200ng as competitor/tracer plus Nb_49 (5 ug or 0.3 nM).
Assay [6] addresses T2, Recombinant human CD74 73-232 (human, UniProt P04233 73-296).
T2 construct: Bought from R&D Systems (NP_004346.1); The entry includes the N-terminal hemagglutinin tag; also called R&D systems 3590-CD
T2 sequence: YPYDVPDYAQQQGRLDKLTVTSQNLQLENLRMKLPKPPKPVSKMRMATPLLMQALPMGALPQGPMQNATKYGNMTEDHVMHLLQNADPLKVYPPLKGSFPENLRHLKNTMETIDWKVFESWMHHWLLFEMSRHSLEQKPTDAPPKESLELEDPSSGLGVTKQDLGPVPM
The assay can be described thus: BIAcore SPR, biotinylated Nb_49 on streptavidin chip, recombinant human CD74 73-232 at 0.05-500 nM as analyte.

Assay [7] concerns the target T1, Mouse CD74 on cells (C57Black/6 PECs, MC-38, 3LL) (mouse). Nature of the assay: FACS competition, PECs of WT mice, APC-labeled MIF 200ng as competitor/tracer plus Nb_49 (5 ug or 0.3 nM).

B1: Recombinant human MIF 2-115 (ligand)
chain: PMFIVNTNVPRASVPDGFLSELTQQLAQATGKPPQYIAVHVVPDQLMAFGGSSEPCALCSLHSIGKIGGAQNRSYSKLLCGLLAERLRISPDRVYINYYDMNAASVGWNNSTFA
In the case of B1, the mean fluorescence intensity of APC-labeled MIF bound to the cells in assay [1] worked out at 120; in assay [2], 49.9; in assay [3] it was 64.8; in assay [4], 61.

B2: NbhCD74n49 (VHH)
VHH: QVQLQESGGGSVQAGGSLRLSCVASGLVYSLKAYDWGWARQAPGKECELVGRIMPNGATVYIDSVKGRFIISRENSNNTVYLQMNSLKFEDTAVYYCARVGDPSGGWCKGQGTQVTVSS
notes: also called Nb_49; NB_49
B2: in assay [5], the mean fluorescence intensity of APC-labeled MIF bound to the cells was determined as 69.4. For the same molecule, in assay [6], the equilibrium dissociation constant (Kd) (usually the free concentration of one partner at which half of the binding sites on the other are occupied at equilibrium, for simple one-to-one binding) came to 5.73 nM; the off-rate constant (koff) (usually the first-order rate constant of dissociation) worked out at 0.000581 s⁻¹; the association rate constant (kon) (as a rule, the rate constant with which the complex forms) came to 102000 M⁻¹ s⁻¹. In addition, the mean fluorescence intensity of APC-labeled MIF bound to the cells in assay [7] came out at 46.2.
